Numbering of substitutions follows the chain as printed. Blank lines part the entries; values can stand above or below the binder they belong to.
How the values were obtained:
[1] = target: IL-6 surfaces of Table 8 (Bact, euk, cyno), average; assay: SPR (Biacore), off-rate screen
human IL-6 = human IL-6 (human, UniProt P05231 30-212); assay: cell-based or functional assay
[2] = target: T1, eukaryotically produced human IL-6 (human, UniProt P05231 30-212); assay: SPR (Biacore), purified Fab
T1 construct: Immobilised on the Biacore chip; also called Euk IL-6; EUK IL-6 (3-1)

[3] = target: T2, bacterially produced human IL-6 (human, UniProt P05231 30-212); assay: SPR (Biacore), purified Fab
T2 construct: Immobilised on the Biacore chip; also called BACT IL-6 (2-1); bactIL-6

[4] = target: T3, human IL-6 (as added in the B9 and 7TD1 bioassays) (human, UniProt P05231 30-212); assay: cell-based or functional assay
[5] = target: T3, human IL-6 (as added in the B9 and 7TD1 …); assay: cell-based or functional assay; remark: listed apart in the source
[6] = target: T3, human IL-6 (as added in the B9 and 7TD1 …); assay: cell-based or functional assay; remark: listed apart in the source
[7] = target: T4, bacterially produced cynomolgus monkey IL-6 (cynomolgus monkey, UniProt P79341 28-212, limits assumed); assay: off-rate of Fab 111A7 variant on bact-cy IL-6 (binding kinetics, SPR presumed; n = 1)
T4 construct: also called bact-cy IL-6; HIS-cyIL-6

[8] = target: IL-6 (bact-hIL-6, euk-hIL-6 and bact-cy IL-6; 'average binding' of Table 21); assay: average binding level in the off-rate screen (unit not given; n = 1)

Average binding (RU) [1]: 635 RU
B1: 61H7 (Fab, V domains shown)
VH: EVQLVESGGGLVQPGGSLRLSCAASGFTFSSYRMYWVRQPPGKGLEWVSAISAGGGSTYYGDSVKGRFTISRDNAKNTVYLQMNSLKPEDTAVYYCANRAGWGMGDYWGQGTQVTVSS
VL: QTVVTQEPSLSVSPGGTVTLTCGLSSGSVTASNYPGWFQQTPGQAPRALIYSTNDRHSGVPSRFSGSISGNKAALTITGAQPEDEADYYCALDIGDITEFGGGTHLTVLG

Kd [2]: 410 pM
koff [2]: 0.0001 s⁻¹
kon [2]: 250000 M⁻¹ s⁻¹
Kd [3]: 500 pM
koff [3]: 0.0001 s⁻¹
kon [3]: 210000 M⁻¹ s⁻¹
B5: 24D10 (Fab, V domains shown)
VH: QLQVVESGGGLVQPGGSLRLSCAASGFTFSSYAMSWVRQAPGKGPEWVSRISSGGGSTSYADSVKGRFTISRDNAKNTLYLQMNSLKPEDTAVYYCANRAGWGMGDYWGQGTQVTVSS
VL: B1 VL
notes: Purified Fab

Kd [2]: 450 pM
koff [2]: 5.5e-05 s⁻¹
kon [2]: 120000 M⁻¹ s⁻¹
Kd [3]: 17 pM
koff [3]: 2e-06 s⁻¹
kon [3]: 120000 M⁻¹ s⁻¹
B6: 61H7 (Fab, V domains shown)
VH: B1 VH
VL: B1 VL
notes: Fab; also called Fab 61H7

IC50, proliferation of IL-6-dependent B9 cells with 10 pg/ml human IL-6 (human IL-6): < 0.1 pM
B7: 129D3 antibody (antibody, V domains shown)
VH: EVQLQESGPGLVKPSQTLSLTCTVSGGSITSRYYAWSWIRQPPGKGLEWIGVIDYDGDTYYSPSLKSRVSISWDTSKNQFSLKLSSVTPADTAVYYCARDPDVVTGFHYDYWGQGTMVTVSS
VL: QSALTQPPSVSGTPGQSVTISCAGANNDIGTYAYVSWYQQLPGTAPKLMIYKVTTRASGIPDRFSGSKSGNTASLTISGLQAEDEADYYCASYRNFNNAVFGTGTKLTVL
IC50, growth of IL-6-dependent 7TD1 cells with 75 pg/ml human IL-6 (human IL-6): < 1 pM

koff [7]: 0.000121 s⁻¹
average binding [8]: 64
B16: Fab 111A7 with the CDR3 methionine changed to R (Fab, V domains shown)
VH: EVQLLESGGGLVQPGGSLRLSCAASGFTFSSYAMSWVRQAPGKGPEWVSRISAGGGSTYYGDSVKGRFTISRDNSKNTLYLQMNSLRAEDTAVYYCANRAGWGRGDYWGQGTLVTVSS
VL: QTVVTQEPSFSVSPGGTVTLTCGLSSGSVTASNYPGWYQQTPGQAPRALIYSTNDRHSGVPDRFSGSISGNKAALTITGAQAEDEADYYCALDIGDITEFGGGTQLTVL

koff [7]: 0.000203 s⁻¹
average binding [8]: 144
B17: Fab 111A7 with the CDR3 methionine changed to F (Fab, V domains shown)
VH: B16 VH with R104F
VL: B16 VL

koff [7]: 0.000207 s⁻¹
average binding [8]: 137
B18: Fab 111A7 with the CDR3 methionine changed to N (Fab, V domains shown)
VH: B16 VH with R104N
VL: B16 VL

koff [7]: 0.00417 s⁻¹
average binding [8]: 81
B19: Fab 111A7 with the CDR3 methionine changed to K (Fab, V domains shown)
VH: B16 VH with R104K
VL: B16 VL

koff [7]: 0.000177 s⁻¹
average binding [8]: 26
B20: Fab 111A7 with the CDR3 methionine changed to W (Fab, V domains shown)
VH: B16 VH with R104W
VL: B16 VL

More lines, now with the values behind:

B2: 111B1 (antibody, V domains shown)
VH: B16 VH with S35Y, A40P, P45L, R104M
VL: B16 VL with Y38F, S69L
IC50, growth of IL-6-dependent 7TD1 cells with 75 pg/ml human IL-6 (human IL-6): < 1 pM

B3: 61H7 antibody (antibody, V domains shown)
VH: B1 VH
VL: B1 VL
IC50, growth of IL-6-dependent 7TD1 cells with 75 pg/ml human IL-6 (human IL-6): < 1 pM

B4: 104C1 (antibody, V domains shown)
VH: B1 VH with V5L, R33A, P40A, A50R
VL: B1 VL with L10F, F38Y, S62D, P82A, E83D, A86S, H105K
IC50, growth of IL-6-dependent 7TD1 cells with 75 pg/ml human IL-6 (human IL-6): < 1 pM

B8: 68F2 antibody (antibody, V domains shown)
VH: B7 VH with S31T, I50M, V69T, K83Q, A90E, M117Q
VL: QSALTQPPLVSGTPGQTVTISCAGANNDIGTYAYVSWYQQLPGTAPKLLIYKVTTRASGIPSRFSGSKSGNTASLTISGLQSEDEADYYCASYRNFNNAVFGRGTHLTVLG
IC50, growth of IL-6-dependent 7TD1 cells with 75 pg/ml human IL-6 (human IL-6): < 1 pM

B9: 133A9 (antibody, V domains shown)
VH: B7 VH with S31T, D56E, S70T, W73V, P89A, A90E
VL: B7 VL with S9L, T13S, S17T, L41P, K68I, A82S
IC50, growth of IL-6-dependent 7TD1 cells with 75 pg/ml human IL-6 (human IL-6): < 1 pM

B10: 133E5 (germlined variant of 68F2) (antibody, V domains shown)
VH: B7 VH with E1Q, S70T, A90E, M117Q
VL: B7 VL with T13S, S17T, T103R
IC50, 7TD1 cells [4]: 0.1 pM
Potency relative to 68F2, 7TD1 cells [4]: 6.69
IC 50, B9 cell proliferation [5]: 0.19 pM
Rel. potency, B9 cells [5]: 4.3

B11: 133E5 (antibody, V domains shown)
VH: B7 VH with E1Q, S70T, A90E, M117Q
VL: B7 VL with T13S, S17T, T103R
IC50, growth of IL-6-dependent 7TD1 cells with 75 pg/ml human IL-6 (human IL-6): < 1 pM

B12: 68F2 (parental antibody), full-length IgG1 (antibody, V domains shown)
VH: B7 VH with S31T, I50M, V69T, K83Q, A90E, M117Q
VL: B8 VL
IC50, 7TD1 proliferation assay, exp 7.07 (batch 24.06) [6]: 1.36 pM
IC50, 7TD1 proliferation assay, exp 7.07 (batch #12.9) [6]: 1.46 pM
IC50, 7TD1 proliferation assay, exp 22.06 (batch #12.9) [6]: 0.803 pM
IC50, 7TD1 proliferation assay, exp 29.06 (December batch) [6]: 0.645 pM
IC50, 7TD1 proliferation assay, exp 29.06 (Large batch) [6]: 1.31 pM
IC50, 7TD1 proliferation assay, exp 29.06 (batch 24.06) [6]: 0.56 pM
IC50, 7TD1 proliferation assay, exp 29.06 (batch #12.9) [6]: 0.521 pM
Rel. Potency, 7TD1, exp 29.06 (batch 24.06) [6]: 1
IC50, 7TD1 cells (batch A8.10) [4]: 0.67 pM
Potency relative to 68F2, 7TD1 cells (batch A8.10) [4]: 1
IC 50, B9 cell proliferation (batch 12.9) [5]: 0.98 pM
IC 50, B9 cell proliferation (batch A8.10) [5]: 0.62 pM
average IC50 of the two 68F2 batches, B9 cells [5]: 0.8 pM

B13: 132E7 (germlined variant of 68F2) (antibody, V domains shown)
VH: B7 VH with S70T, M117T
VL: B7 VL with A3V, S9R, T13A, S17T, M49L, I60V, T72S, S78T, T103G
IC50, 7TD1 cells [4]: 0.37 pM
Potency relative to 68F2, 7TD1 cells [4]: 1.85
IC 50, B9 cell proliferation [5]: 0.38 pM
Rel. potency, B9 cells [5]: 2.1

B14: 133H2 (antibody, V domains shown)
VH: B7 VH with S31T, V69T, S70T, M117T
VL: B7 VL with S9L, T13S, S17T, L41P, T103S
IC50, growth of IL-6-dependent 7TD1 cells with 75 pg/ml human IL-6 (human IL-6): < 1 pM

B15: Fab 111A7 with the CDR3 methionine changed to C (Fab, V domains shown)
VH: B16 VH with R104C
VL: B16 VL
koff [7]: 9.46e-05 s⁻¹
average binding [8]: 42
